These results are taken from patent US5536648, “Amplified DNA assay using a double stranded DNA binding protein” (Amrad Corporation Limited).

Series [1] concerns the target T1, GST-GCN4 6.8 (full-length GCN4, 281 aa) (Saccharomyces cerevisiae, UniProt P03069 P03069:1-281). In words: microtitre plate capture, MTPBS-Tween, 20 C; binds with 1 ug/ml carrier human DNA. Conditions: tags: N-terminal GST (Schistosoma japonicum), pGEX-2T, E. coli; chain copies: 2.
The target of series [2] is T1, GST-GCN4 6.8 (full-length GCN4, 281 aa). In words: microtitre plate capture; binds with 1 ug/ml carrier human DNA; oligo called d2 in results, d1 in methods. The note with it: tags: N-terminal GST (Schistosoma japonicum), pGEX-2T, E. coli; chain copies: 2.

T1 sequence (P03069 whole entry, one chain of several): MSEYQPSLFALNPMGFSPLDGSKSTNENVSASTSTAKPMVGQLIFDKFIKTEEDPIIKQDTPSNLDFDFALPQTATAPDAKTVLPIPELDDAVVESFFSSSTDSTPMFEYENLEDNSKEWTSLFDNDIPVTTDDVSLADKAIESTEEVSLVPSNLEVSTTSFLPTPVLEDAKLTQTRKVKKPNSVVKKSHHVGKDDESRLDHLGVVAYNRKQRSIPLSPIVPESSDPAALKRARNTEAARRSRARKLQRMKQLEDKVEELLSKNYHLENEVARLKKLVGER

B1: HIV p24 c-d PCR product with GCN4 site (primer d shown) (dsDNA)
DNA 1: AAGTGACTCAAGTGACTCAATCCTTGTCTTATGTCCAGAA
DNA 2: TTCTGGACATAAGACAAGGATTGAGTCACTTGAGTCACTT
For B1, the binding result in series [1] is reported as “binds”.

B2: HIV p24 c-d1 (figure: d2) PCR product with GCN4 site (primer d1 shown) (dsDNA)
DNA 1: AGCGGATGACTCATTTTTTTTTCCTTGTCTTATGTCCAGAA
DNA 2: TTCTGGACATAAGACAAGGAAAAAAAAATGAGTCATCCGCT
Consider B2, for which the binding result in series [2] is on record as “binds”.
